Measured values as given in patent publication US20140274782A1, “AFFINITY REAGENTS AND METHODS FOR DETECTION, PURIFICATION, AND PROTEOMIC ANALYSIS OF METHYLATED PROTEINS” (The Board of Trustees of the Leland Stanford Junior …, priority 2013, published 2014).

B1: CSTF3 (protein, UniProt Q12996 2-717, looked up)
Cleavage stimulation factor …: SGDGATEQAAEYVPEKVKKAEKKLEENPYDLDAWSILIREAQNQPIDKARKTYERLVAQFPSSGRFWKLYIEAEIKAKNYDKVEKLFQRCLMKVLHIDLWKCYLSYVRETKGKLPSYKEKMAQAYDFALDKIGMEIMSYQIWVDYINFLKGVEAVGSYAENQRITAVRRVYQRGCVNPMINIEQLWRDYNKYEEGINIHLAKKMIEDRSRDYMNARRVAKEYETVMKGLDRNAPSVPPQNTPQEAQQVDMWKKYIQWEKSNPLRTEDQTLITKRVMFAYEQCLLVLGHHPDIWYEAAQYLEQSSKLLAEKGDMNNAKLFSDEAANIYERAISTLLKKNMLLYFAYADYEESRMKYEKVHSIYNRLLAIEDIDPTLVYIQYMKFARRAEGIKSGRMIFKKAREDTRTRHHVYVTAALMEYYCSKDKSVAFKIFELGLKKYGDIPEYVLAYIDYLSHLNEDNNTRVLFERVLTSGSLPPEKSGEIWARFLAFESNIGDLASILKVEKRRFTAFKEEYEGKETALLVDRYKFMDLYPCSASELKALGYKDVSRAKLAAIIPDPVVAPSIVPVLKDEVDRKPEYPKPDTQQMIPFQPRHLAPPGLHPVPGGVFPVPPAAVVLMKLLPPPICFQGPFVQVDELMEIFRRCKIPNTVEEAVRIITGGAPELAVEGNGPVESNAVLTKAVKRPNEDSDEDEEKGAVVPPVHDIYRARQQKRIR
B2: LANCL2 (protein, UniProt Q9NS86 2-450, looked up)
LanC-like protein 2: GETMSKRLKLHLGGEAEMEERAFVNPFPDYEAAAGALLASGAAEETGCVRPPATTDEPGLPFHQDGKIIHNFIRRIQTKIKDLLQQMEEGLKTADPHDCSAYTGWTGIALLYLQLYRVTCDQTYLLRSLDYVKRTLRNLNGRRVTFLCGDAGPLAVGAVIYHKLRSDCESQECVTKLLQLQRSVVCQESDLPDELLYGRAGYLYALLYLNTEIGPGTVCESAIKEVVNAIIESGKTLSREERKTERCPLLYQWHRKQYVGAAHGMAGIYYMLMQPAAKVDQETLTEMVKPSIDYVRHKKFRSGNYPSSLSNETDRLVHWCHGAPGVIHMLMQAYKVFKEEKYLKEAMECSDVIWQRGLLRKGYGICHGTAGNGYSFLSLYRLTQDKKYLYRACKFAEWCLDYGAHGCRIPDRPYSLFEGMAGAIHFLSDVLGPETSRFPAFELDSSKRD
B3: EEF1B2 (protein, UniProt P24534 2-225, looked up)
Elongation factor 1-beta: GFGDLKSPAGLQVLNDYLADKSYIEGYVPSQADVAVFEAVSSPPPADLCHALRWYNHIKSYEKEKASLPGVKKALGKYGPADVEDTTGSGATDSKDDDDIDLFGSDDEEESEEAKRLREERLAQYESKKAKKPALVAKSSILLDVKPWDDETDMAKLEECVRSIQADGLVWGSSKLVPVGYGIKKLQIQCVVEDDKVGTDMLEEQITAFEDYVQSMDVAAFNKI
B4: DUSP3 (protein, UniProt P51452 1-185, looked up)
Dual specificity protein …: MSGSFELSVQDLNDLLSDGSGCYSLPSQPCNEVTPRIYVGNASVAQDIPKLQKLGITHVLNAAEGRSFMHVNTNANFYKDSGITYLGIKANDTQEFNLSAYFERAADFIDQALAQKNGRVLVHCREGYSRSPTLVIAYLMMRQKMDVKSALSIVRQNREIGPNDGFLAQLCQLNDRLAKEGKLKP

Test system: 3×MBT domain of L3MBTL1
Assay: Triple SILAC pull-down, 3xMBT/3xMBTD355N ratio (cytoplasmic, nuclear and chromatin fractions of 293T cells);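 also: proteins quantified with MaxQuant, requiring at least two unique peptides and quantification in both label directions, normalized to the mean of proteins from a digested loading control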
Assay type: binding, human
Details: SILAC ratio 3xMBT vs 3xMBTD355N pull-down, 293T cells; experiment with UNC0638 in heavy SILAC media; all values in log base 2

Molecule	3xMBT/D355N UNC Heavy [log base 2]
B1	1.58
B2	1.44
B3	−0.81
B4	1.97

Same assay, conditions: SILAC ratio 3xMBT vs 3xMBTD355N pull-down, 293T cells; experiment with UNC0638 in light SILAC media; all values in log base 2

Molecule	3xMBT/D355N UNC Light [log base 2]
B1	1.48
B2	1.81
B3	−0.32
B4	1.19

Biological target: T1, G9a and GLP (Homo sapiens, UniProt Q96KQ7+Q9H9B1)
T1 sequence (Q96KQ7 2-1210 limits assumed): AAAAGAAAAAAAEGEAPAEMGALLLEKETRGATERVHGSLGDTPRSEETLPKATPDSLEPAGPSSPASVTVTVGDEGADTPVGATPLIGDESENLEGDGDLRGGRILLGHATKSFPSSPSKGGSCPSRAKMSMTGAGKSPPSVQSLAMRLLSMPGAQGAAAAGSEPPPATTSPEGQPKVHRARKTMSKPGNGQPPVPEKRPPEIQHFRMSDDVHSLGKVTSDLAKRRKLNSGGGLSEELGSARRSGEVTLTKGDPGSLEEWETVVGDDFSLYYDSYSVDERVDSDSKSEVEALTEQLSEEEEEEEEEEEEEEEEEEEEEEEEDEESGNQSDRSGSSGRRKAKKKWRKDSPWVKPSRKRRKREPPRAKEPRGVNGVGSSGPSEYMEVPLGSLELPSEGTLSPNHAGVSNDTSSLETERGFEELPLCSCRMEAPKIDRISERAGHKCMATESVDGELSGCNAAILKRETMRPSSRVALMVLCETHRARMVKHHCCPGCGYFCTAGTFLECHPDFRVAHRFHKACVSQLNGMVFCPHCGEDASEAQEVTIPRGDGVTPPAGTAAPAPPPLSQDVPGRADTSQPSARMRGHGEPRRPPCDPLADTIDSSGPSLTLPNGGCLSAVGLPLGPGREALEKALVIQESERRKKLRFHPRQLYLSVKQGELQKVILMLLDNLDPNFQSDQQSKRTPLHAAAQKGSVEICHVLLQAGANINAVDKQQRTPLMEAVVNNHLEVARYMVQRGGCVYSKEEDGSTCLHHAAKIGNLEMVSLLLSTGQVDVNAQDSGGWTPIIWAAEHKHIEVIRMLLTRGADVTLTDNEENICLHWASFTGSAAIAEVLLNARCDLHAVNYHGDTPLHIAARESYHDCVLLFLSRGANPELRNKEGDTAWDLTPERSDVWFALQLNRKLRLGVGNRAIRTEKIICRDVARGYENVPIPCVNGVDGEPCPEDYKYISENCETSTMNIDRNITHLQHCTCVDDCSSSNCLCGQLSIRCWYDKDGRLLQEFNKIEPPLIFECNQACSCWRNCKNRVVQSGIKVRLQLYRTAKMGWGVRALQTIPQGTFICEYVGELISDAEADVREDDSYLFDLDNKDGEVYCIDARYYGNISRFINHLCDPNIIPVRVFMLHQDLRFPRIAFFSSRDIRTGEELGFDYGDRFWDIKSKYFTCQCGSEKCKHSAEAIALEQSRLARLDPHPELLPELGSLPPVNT
T1 sequence (Q9H9B1 2-1298 limits assumed): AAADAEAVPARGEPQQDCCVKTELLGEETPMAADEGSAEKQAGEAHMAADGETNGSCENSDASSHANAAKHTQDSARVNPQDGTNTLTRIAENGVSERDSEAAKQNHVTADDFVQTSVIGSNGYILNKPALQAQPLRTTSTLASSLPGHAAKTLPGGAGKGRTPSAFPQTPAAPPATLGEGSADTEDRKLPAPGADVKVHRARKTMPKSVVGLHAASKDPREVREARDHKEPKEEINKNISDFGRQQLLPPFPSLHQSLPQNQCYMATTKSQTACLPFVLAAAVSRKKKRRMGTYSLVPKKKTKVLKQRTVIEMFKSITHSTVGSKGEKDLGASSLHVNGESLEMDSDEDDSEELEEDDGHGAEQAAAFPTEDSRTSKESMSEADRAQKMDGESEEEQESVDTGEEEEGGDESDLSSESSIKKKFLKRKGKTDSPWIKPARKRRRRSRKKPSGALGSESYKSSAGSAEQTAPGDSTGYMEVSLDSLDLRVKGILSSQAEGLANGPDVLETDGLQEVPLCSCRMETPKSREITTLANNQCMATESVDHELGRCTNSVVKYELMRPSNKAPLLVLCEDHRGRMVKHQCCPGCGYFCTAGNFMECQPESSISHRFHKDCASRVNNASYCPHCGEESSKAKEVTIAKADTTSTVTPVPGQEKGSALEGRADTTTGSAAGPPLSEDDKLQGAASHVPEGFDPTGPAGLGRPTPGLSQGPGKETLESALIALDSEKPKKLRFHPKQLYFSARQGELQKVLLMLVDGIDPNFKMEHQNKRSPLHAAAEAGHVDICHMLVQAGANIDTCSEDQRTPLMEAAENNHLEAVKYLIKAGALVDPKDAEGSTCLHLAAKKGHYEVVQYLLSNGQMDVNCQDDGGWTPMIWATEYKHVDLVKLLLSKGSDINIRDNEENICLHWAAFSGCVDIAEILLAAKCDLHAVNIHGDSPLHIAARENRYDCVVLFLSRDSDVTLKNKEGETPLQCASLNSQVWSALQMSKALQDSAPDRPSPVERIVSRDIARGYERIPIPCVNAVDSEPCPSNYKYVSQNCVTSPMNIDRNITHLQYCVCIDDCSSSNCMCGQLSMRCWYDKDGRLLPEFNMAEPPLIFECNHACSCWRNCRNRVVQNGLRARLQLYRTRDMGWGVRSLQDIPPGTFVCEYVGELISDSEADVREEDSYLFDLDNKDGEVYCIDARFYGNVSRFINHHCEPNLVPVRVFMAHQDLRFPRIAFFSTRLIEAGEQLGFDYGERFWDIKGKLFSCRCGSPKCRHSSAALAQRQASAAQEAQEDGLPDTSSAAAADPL
Assay: Triple SILAC pull-down after UNC0638 treatment of 293T cells, DMSO/UNC0638 ratio of protein captured by 3×MBT;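 also: mass spectrometry (Q-Exactive) SILAC quantitation, DMSO/UNC0638 ratio computed after subtracting 3×MBTD355N mutant pull-down background, only proteins with at least twofold 3×MBT over mutant signal considered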
Assay type: cell-based
Design: cells were treated for 24 hours with UNC0638 at 2.5 μM or DMSO vehicle control; endogenous in cells; host or cells: HEK 293T
Details: SILAC ratio DMSO relative to UNC0638, pull-down with 3xMBT; UNC0638 in heavy SILAC media; all values in log base 2

Molecule	Relative to UNC0638 UNC Heavy [log base 2]
B1	−0.78
B2	−0.05
B3	0.01
B4	0.47

Same assay, conditions: SILAC ratio DMSO relative to UNC0638, pull-down with 3xMBT; UNC0638 in light SILAC media; all values in log base 2

Molecule	Relative to UNC0638 UNC Light [log base 2]
B1	0.47
B2	−0.26
B3	−0.64
B4	−1.35

Same assay, conditions: average of UNC Light and UNC Heavy experiments; all values in log base 2

Molecule	Relative to UNC0638 Average [log base 2]
B1	−0.15
B2	−0.16
B3	−0.31
B4	−0.44
